The target in assay [1] is T1, green fluorescent protein (Aequorea victoria (assumed; GFP variant …, UniProt P42212 = GFP).
T1 construct: green fluorescent protein (GFP, 27 kDa); the GFP construct may be there; also called GFP; recombinant GFP; source: E. coli BL21 (DE3), purified (Ni-NTA agarose)
Kind of assay: SPR; Biacore T-200, multicycle; 265-274 RU of recombinant GFP immobilised on CM5 chip; Nbs flowed in five dilutions; HBS-EP+ buffer, 25 °C, 30 μL/min. The note with it: both partners purified. Background: Surface plasmon resonance follows binding to a sensor surface in real time, without labels.

Assay [2] concerns the target T1, green fluorescent protein. The description is as above. As to conditions: both partners purified. The source holds these as a separate data set.

What is called Kd is the free concentration of one partner at which half of the binding sites on the other are occupied at equilibrium, for simple one-to-one binding. Usually koff stands for a measure of how fast the partners let go of each other. Usually kon stands for the rate constant with which the complex forms.

B1: anti-GFP mutant nanobody Y37A without peptide barcode (VHH)
VHH: QVQLVESGGALVQPGGSLRLSCAASGFPVNRYSMRWARQAPGKEREWVAGMSSAGDRSSYEDSVKGRFTISRDDARNTVYLQMNSLKPEDTAVYYCNVNVGFEYWGQGTQVTVSS
notes: as the VHH chain of m2 with the stated change; source: P. pastoris, purified (Ni-NTA agarose)
With B1, in assay [1], the Kd was found to be 16.4 nM, the koff is 0.0759 s⁻¹ and the kon was determined as 4.62e+06 M⁻¹ s⁻¹.

B2: anti-GFP mutant nanobody E103A without peptide barcode (VHH)
VHH: QVQLVESGGALVQPGGSLRLSCAASGFPVNRYSMRWYRQAPGKEREWVAGMSSAGDRSSYEDSVKGRFTISRDDARNTVYLQMNSLKPEDTAVYYCNVNVGFAYWGQGTQVTVSS
notes: as for B1
For B2, the binding result in assay [1] is listed as “no binding”.

B3: anti-GFP mutant nanobody G50A without peptide barcode (VHH)
VHH: QVQLVESGGALVQPGGSLRLSCAASGFPVNRYSMRWYRQAPGKEREWVAAMSSAGDRSSYEDSVKGRFTISRDDARNTVYLQMNSLKPEDTAVYYCNVNVGFEYWGQGTQVTVSS
notes: as for B1
Regarding B3, the binding result in assay [1] is reported as “no binding”.

B4: anti-GFP mutant nanobody R35A without peptide barcode (VHH)
VHH: QVQLVESGGALVQPGGSLRLSCAASGFPVNRYSMAWYRQAPGKEREWVAGMSSAGDRSSYEDSVKGRFTISRDDARNTVYLQMNSLKPEDTAVYYCNVNVGFEYWGQGTQVTVSS
notes: as for B1
As to B4, the binding result in assay [1] is listed as “no binding”.

B5: anti-GFP mutant nanobody R57A without peptide barcode (VHH)
VHH: QVQLVESGGALVQPGGSLRLSCAASGFPVNRYSMRWYRQAPGKEREWVAGMSSAGDASSYEDSVKGRFTISRDDARNTVYLQMNSLKPEDTAVYYCNVNVGFEYWGQGTQVTVSS
notes: as the VHH chain of m2 with the stated change; source: Pichia pastoris GS115, culture medium, purified (His SpinTrap)
As for B5, in assay [2], the Kd amounted to 0.02 nM, the koff stood at 6.72e-05 s⁻¹ and the on-rate (kon) was 3.42e+06 M⁻¹ s⁻¹.

B6: anti-GFP mutant nanobody W47A without peptide barcode (VHH)
VHH: QVQLVESGGALVQPGGSLRLSCAASGFPVNRYSMRWYRQAPGKEREAVAGMSSAGDRSSYEDSVKGRFTISRDDARNTVYLQMNSLKPEDTAVYYCNVNVGFEYWGQGTQVTVSS
notes: as for B1
With B6, in assay [1], the dissociation constant (Kd) stood at 0.722 nM, the koff was 0.00606 s⁻¹ and the kon worked out at 8.39e+06 M⁻¹ s⁻¹.

B7: anti-GFP mutant nanobody F102A without peptide barcode (VHH)
VHH: QVQLVESGGALVQPGGSLRLSCAASGFPVNRYSMRWYRQAPGKEREWVAGMSSAGDRSSYEDSVKGRFTISRDDARNTVYLQMNSLKPEDTAVYYCNVNVGAEYWGQGTQVTVSS
notes: as for B5
B7: in assay [2], the Kd turned out to be 0.121 nM, the koff turned out to be 0.000628 s⁻¹ and the kon amounted to 5.2e+06 M⁻¹ s⁻¹.

Source of the values: publication PMC8563947 (Scientific Reports, 2021).
